As usually defined, the stoichiometry N is a count of units in the complex or per binding partner.

Here are results for six proteins from publication PMC7898959, “Identification of an amino-terminus determinant critical for ryanodine receptor/Ca^2+ release channel function” (Cardiovascular Research, 2020).

This series deals with the molecule itself. The series is described as follows: cross-linking; HEK293 cell homogenate (20 μg) with glutaraldehyde (0.0025% or 260 μmol/L) for 0 min to 1 h under reducing (10 mM DTT) conditions; SDS-PAGE and blot with Ab^cMyc; tetramer formation T = ODT/(ODT + ODM) × 100 by densitometry.

B1: NT^(E173A + K174A) (RyR2 residues 1–906) (domain or fragment, human, UniProt Q92736 1-906, looked up)
chain: MADGGEGEDEIQFLRTDDEVVLQCTATIHKEQQKLCLAAEGFGNRLCFLESTSNSKNVPPDLSICTFVLEQSLSVRALQEMLANTVEKSEGQVDVEKWKFMMKTAQGGGHRTLLYGHAILLRHSYSGMYLCCLSTSRSSTDKLAFDVGLQEDTTGEACWWTIHPASKQRSEGAAVRVGDDLILVSVSSERYLHLSYGNGSLHVDAAFQQTLWSVAPISSGSEAAQGYLIGGDVLRLLHGHMDECLTVPSGEHGEEQRRTVHYEGGAVSVHARSLWRLETLRVAWSGSHIRWGQPFRLRHVTTGKYLSLMEDKNLLLMDKEKADVKSTAFTFRSSKEKLDVGVRKEVDGMGTSEIKYGDSVCYIQHVDTGLWLTYQSVDVKSVRMGSIQRKAIMHHEGHMDDGISLSRSQHEESRTARVIRSTVFLFNRFIRGLDALSKKAKASTVDLPIESVSLSLQDLIGYFHPPDEHLEHEDKQNRLRALKNRQNLFQEEGMINLVLECIDRLHVYSSAAHFADVAGREAGESWKSILNSLYELLAALIRGNRKNCAQFSGSLDWLISRLERLEASSGILEVLHCVLVESPEALNIIKEGHIKSIISLLDKHGRNHKVLDVLCSLCVCHGVAVRSNQHLICDNLLPGRDLLLQTRLVNHVSSMRPNIFLGVSEGSAQYKKWYYELMVDHTEPFVTAEATHLRVGWASTEGYSPYPGGGEEWGGNGVGDDLFSYGFDGLHLWSGCIARTVSSPNQHLLRTDDVISCCLDLSAPSISFRINGQPVQGMFENFNIDGLFFPVVSFSAGIKVRFLLGGRHGEFKFLPPPGYAPCYEAVLPKEKLKVEHSREYKQERTYTRDLLGPTVSLTQAAFTPIPVDTSQIVLPPHLERIREKLAENIHELWVMNKIELGWQYGP
notes: cardiac ryanodine receptor (RyR2), N-terminus, residues 1-906, double alanine substitution E173 + K174; negative control mutant; source: HEK293, transiently transfected, in cell homogenate; not shown: cMyc, N-terminal, kept
In the case of B1, the “stoichiometry N” value came to 4.

B2: wild-type RyR2 N-terminus (NT, residues 1–906) tagged with the cMyc epitope (domain or fragment, human, UniProt Q92736 1-906, looked up)
chain: MADGGEGEDEIQFLRTDDEVVLQCTATIHKEQQKLCLAAEGFGNRLCFLESTSNSKNVPPDLSICTFVLEQSLSVRALQEMLANTVEKSEGQVDVEKWKFMMKTAQGGGHRTLLYGHAILLRHSYSGMYLCCLSTSRSSTDKLAFDVGLQEDTTGEACWWTIHPASKQRSEGEKVRVGDDLILVSVSSERYLHLSYGNGSLHVDAAFQQTLWSVAPISSGSEAAQGYLIGGDVLRLLHGHMDECLTVPSGEHGEEQRRTVHYEGGAVSVHARSLWRLETLRVAWSGSHIRWGQPFRLRHVTTGKYLSLMEDKNLLLMDKEKADVKSTAFTFRSSKEKLDVGVRKEVDGMGTSEIKYGDSVCYIQHVDTGLWLTYQSVDVKSVRMGSIQRKAIMHHEGHMDDGISLSRSQHEESRTARVIRSTVFLFNRFIRGLDALSKKAKASTVDLPIESVSLSLQDLIGYFHPPDEHLEHEDKQNRLRALKNRQNLFQEEGMINLVLECIDRLHVYSSAAHFADVAGREAGESWKSILNSLYELLAALIRGNRKNCAQFSGSLDWLISRLERLEASSGILEVLHCVLVESPEALNIIKEGHIKSIISLLDKHGRNHKVLDVLCSLCVCHGVAVRSNQHLICDNLLPGRDLLLQTRLVNHVSSMRPNIFLGVSEGSAQYKKWYYELMVDHTEPFVTAEATHLRVGWASTEGYSPYPGGGEEWGGNGVGDDLFSYGFDGLHLWSGCIARTVSSPNQHLLRTDDVISCCLDLSAPSISFRINGQPVQGMFENFNIDGLFFPVVSFSAGIKVRFLLGGRHGEFKFLPPPGYAPCYEAVLPKEKLKVEHSREYKQERTYTRDLLGPTVSLTQAAFTPIPVDTSQIVLPPHLERIREKLAENIHELWVMNKIELGWQYGP
notes: cardiac ryanodine receptor (RyR2), N-terminus, residues 1-906; species is stated for the full-length RyR2 cDNA (human), not for NT itself; also called NT^WT; source: HEK293, transiently transfected, in cell homogenate (cross-linking) or CHAPS-solubilized lysate (co-IP); not shown: cMyc, N-terminal, kept
In the case of B2, the “stoichiometry N” value was found to be 4.

B3: NT^(K167A + Q168A) (RyR2 residues 1–906) (domain or fragment, human, UniProt Q92736 1-906, looked up)
chain: MADGGEGEDEIQFLRTDDEVVLQCTATIHKEQQKLCLAAEGFGNRLCFLESTSNSKNVPPDLSICTFVLEQSLSVRALQEMLANTVEKSEGQVDVEKWKFMMKTAQGGGHRTLLYGHAILLRHSYSGMYLCCLSTSRSSTDKLAFDVGLQEDTTGEACWWTIHPASAARSEGEKVRVGDDLILVSVSSERYLHLSYGNGSLHVDAAFQQTLWSVAPISSGSEAAQGYLIGGDVLRLLHGHMDECLTVPSGEHGEEQRRTVHYEGGAVSVHARSLWRLETLRVAWSGSHIRWGQPFRLRHVTTGKYLSLMEDKNLLLMDKEKADVKSTAFTFRSSKEKLDVGVRKEVDGMGTSEIKYGDSVCYIQHVDTGLWLTYQSVDVKSVRMGSIQRKAIMHHEGHMDDGISLSRSQHEESRTARVIRSTVFLFNRFIRGLDALSKKAKASTVDLPIESVSLSLQDLIGYFHPPDEHLEHEDKQNRLRALKNRQNLFQEEGMINLVLECIDRLHVYSSAAHFADVAGREAGESWKSILNSLYELLAALIRGNRKNCAQFSGSLDWLISRLERLEASSGILEVLHCVLVESPEALNIIKEGHIKSIISLLDKHGRNHKVLDVLCSLCVCHGVAVRSNQHLICDNLLPGRDLLLQTRLVNHVSSMRPNIFLGVSEGSAQYKKWYYELMVDHTEPFVTAEATHLRVGWASTEGYSPYPGGGEEWGGNGVGDDLFSYGFDGLHLWSGCIARTVSSPNQHLLRTDDVISCCLDLSAPSISFRINGQPVQGMFENFNIDGLFFPVVSFSAGIKVRFLLGGRHGEFKFLPPPGYAPCYEAVLPKEKLKVEHSREYKQERTYTRDLLGPTVSLTQAAFTPIPVDTSQIVLPPHLERIREKLAENIHELWVMNKIELGWQYGP
notes: cardiac ryanodine receptor (RyR2), N-terminus, residues 1-906, double alanine substitution K167 + Q168; source: HEK293, transiently transfected, in cell homogenate; not shown: cMyc, N-terminal, kept
Regarding B3, the “stoichiometry N” value stood at 4.

B4: NT^(D179A + D180A) (RyR2 residues 1–906) (domain or fragment, human, UniProt Q92736 1-906, looked up)
chain: MADGGEGEDEIQFLRTDDEVVLQCTATIHKEQQKLCLAAEGFGNRLCFLESTSNSKNVPPDLSICTFVLEQSLSVRALQEMLANTVEKSEGQVDVEKWKFMMKTAQGGGHRTLLYGHAILLRHSYSGMYLCCLSTSRSSTDKLAFDVGLQEDTTGEACWWTIHPASKQRSEGEKVRVGAALILVSVSSERYLHLSYGNGSLHVDAAFQQTLWSVAPISSGSEAAQGYLIGGDVLRLLHGHMDECLTVPSGEHGEEQRRTVHYEGGAVSVHARSLWRLETLRVAWSGSHIRWGQPFRLRHVTTGKYLSLMEDKNLLLMDKEKADVKSTAFTFRSSKEKLDVGVRKEVDGMGTSEIKYGDSVCYIQHVDTGLWLTYQSVDVKSVRMGSIQRKAIMHHEGHMDDGISLSRSQHEESRTARVIRSTVFLFNRFIRGLDALSKKAKASTVDLPIESVSLSLQDLIGYFHPPDEHLEHEDKQNRLRALKNRQNLFQEEGMINLVLECIDRLHVYSSAAHFADVAGREAGESWKSILNSLYELLAALIRGNRKNCAQFSGSLDWLISRLERLEASSGILEVLHCVLVESPEALNIIKEGHIKSIISLLDKHGRNHKVLDVLCSLCVCHGVAVRSNQHLICDNLLPGRDLLLQTRLVNHVSSMRPNIFLGVSEGSAQYKKWYYELMVDHTEPFVTAEATHLRVGWASTEGYSPYPGGGEEWGGNGVGDDLFSYGFDGLHLWSGCIARTVSSPNQHLLRTDDVISCCLDLSAPSISFRINGQPVQGMFENFNIDGLFFPVVSFSAGIKVRFLLGGRHGEFKFLPPPGYAPCYEAVLPKEKLKVEHSREYKQERTYTRDLLGPTVSLTQAAFTPIPVDTSQIVLPPHLERIREKLAENIHELWVMNKIELGWQYGP
notes: cardiac ryanodine receptor (RyR2), N-terminus, residues 1-906, double alanine substitution D179 + D180; also called D179A + D180A mutant; source: HEK293, transiently transfected, in cell homogenate; not shown: cMyc, N-terminal, kept
Consider B4, for which the “stoichiometry N” value amounted to 4.

B5: NT^R176Q (RyR2 residues 1–906 with the arrhythmia-linked R176Q mutation) (domain or fragment, human, UniProt Q92736 1-906, looked up)
chain: MADGGEGEDEIQFLRTDDEVVLQCTATIHKEQQKLCLAAEGFGNRLCFLESTSNSKNVPPDLSICTFVLEQSLSVRALQEMLANTVEKSEGQVDVEKWKFMMKTAQGGGHRTLLYGHAILLRHSYSGMYLCCLSTSRSSTDKLAFDVGLQEDTTGEACWWTIHPASKQRSEGEKVQVGDDLILVSVSSERYLHLSYGNGSLHVDAAFQQTLWSVAPISSGSEAAQGYLIGGDVLRLLHGHMDECLTVPSGEHGEEQRRTVHYEGGAVSVHARSLWRLETLRVAWSGSHIRWGQPFRLRHVTTGKYLSLMEDKNLLLMDKEKADVKSTAFTFRSSKEKLDVGVRKEVDGMGTSEIKYGDSVCYIQHVDTGLWLTYQSVDVKSVRMGSIQRKAIMHHEGHMDDGISLSRSQHEESRTARVIRSTVFLFNRFIRGLDALSKKAKASTVDLPIESVSLSLQDLIGYFHPPDEHLEHEDKQNRLRALKNRQNLFQEEGMINLVLECIDRLHVYSSAAHFADVAGREAGESWKSILNSLYELLAALIRGNRKNCAQFSGSLDWLISRLERLEASSGILEVLHCVLVESPEALNIIKEGHIKSIISLLDKHGRNHKVLDVLCSLCVCHGVAVRSNQHLICDNLLPGRDLLLQTRLVNHVSSMRPNIFLGVSEGSAQYKKWYYELMVDHTEPFVTAEATHLRVGWASTEGYSPYPGGGEEWGGNGVGDDLFSYGFDGLHLWSGCIARTVSSPNQHLLRTDDVISCCLDLSAPSISFRINGQPVQGMFENFNIDGLFFPVVSFSAGIKVRFLLGGRHGEFKFLPPPGYAPCYEAVLPKEKLKVEHSREYKQERTYTRDLLGPTVSLTQAAFTPIPVDTSQIVLPPHLERIREKLAENIHELWVMNKIELGWQYGP
notes: cardiac ryanodine receptor (RyR2), N-terminus, residues 1-906, with the disease-linked (ARVD2, CPVT) mutation R176Q; source: HEK293, transiently transfected, in cell homogenate (cross-linking) or CHAPS-solubilized lysate (co-IP); not shown: cMyc, N-terminal, kept
Turning to B5, the “stoichiometry N” value stood at 4.

B6: NT^Δβ8–β9 (RyR2 residues 1–906, residues 167–178 removed) (domain or fragment, human, UniProt Q92736 1-906, looked up)
chain: MADGGEGEDEIQFLRTDDEVVLQCTATIHKEQQKLCLAAEGFGNRLCFLESTSNSKNVPPDLSICTFVLEQSLSVRALQEMLANTVEKSEGQVDVEKWKFMMKTAQGGGHRTLLYGHAILLRHSYSGMYLCCLSTSRSSTDKLAFDVGLQEDTTGEACWWTIHPASDDLILVSVSSERYLHLSYGNGSLHVDAAFQQTLWSVAPISSGSEAAQGYLIGGDVLRLLHGHMDECLTVPSGEHGEEQRRTVHYEGGAVSVHARSLWRLETLRVAWSGSHIRWGQPFRLRHVTTGKYLSLMEDKNLLLMDKEKADVKSTAFTFRSSKEKLDVGVRKEVDGMGTSEIKYGDSVCYIQHVDTGLWLTYQSVDVKSVRMGSIQRKAIMHHEGHMDDGISLSRSQHEESRTARVIRSTVFLFNRFIRGLDALSKKAKASTVDLPIESVSLSLQDLIGYFHPPDEHLEHEDKQNRLRALKNRQNLFQEEGMINLVLECIDRLHVYSSAAHFADVAGREAGESWKSILNSLYELLAALIRGNRKNCAQFSGSLDWLISRLERLEASSGILEVLHCVLVESPEALNIIKEGHIKSIISLLDKHGRNHKVLDVLCSLCVCHGVAVRSNQHLICDNLLPGRDLLLQTRLVNHVSSMRPNIFLGVSEGSAQYKKWYYELMVDHTEPFVTAEATHLRVGWASTEGYSPYPGGGEEWGGNGVGDDLFSYGFDGLHLWSGCIARTVSSPNQHLLRTDDVISCCLDLSAPSISFRINGQPVQGMFENFNIDGLFFPVVSFSAGIKVRFLLGGRHGEFKFLPPPGYAPCYEAVLPKEKLKVEHSREYKQERTYTRDLLGPTVSLTQAAFTPIPVDTSQIVLPPHLERIREKLAENIHELWVMNKIELGWQYGP
notes: also called β8–β9 loop deletion; source: HEK293, transiently transfected, in cell homogenate (cross-linking) or CHAPS-solubilized lysate (co-IP); not shown: cMyc, N-terminal, kept
B6: the “stoichiometry N” value turned out to be 4.
